Measured values taken from US20130095104A1 (OMEROS, published 2013).

B1: chimeric anti-FZD10 mAb B9L9.3 (antibody, V domains shown)
VH: AVTLDESGGGLQTPGGALSLVCKASGFTFSSFNMFWVRQEPGKGLEWVAGIDDDGSYPNYGSAVKGRATISRDNGQSTLRLQLNNLRAEDTGTYFCAKSGYGGSWGGYIADDIDAWGHGTEVIVSS
VL: ALTQPASVSANPGETVKITCSGDGSYAGSYYYGWYQQKAPGSAPVTLIYYNNKRPSDIPSRFSGSLSGSTNTLTITGVRADDEAVYFCGSADNSGAAFGAGTTLTVL
notes: also called Chimeric B9L9.3; progeny clone B9L9.3
B2: chimeric anti-FZD10 mAb B9L32.2 (antibody, human IgG1, V domains shown)
VH: B1 VH
VL: ALTQPASVSANPGETVKITCSGSDSSYAGSYYYGWYQQKAPGSAPVTLIYYNNKRPSDIPSRFSGSLSGSTNTLTITGVRADDEAVYFCGSADNSGAAFGAGTTLTVL
notes: also called progeny clone B9L32.2
B3: humanized B9L9.3 antibody (antibody, human IgG1, lambda, V domains shown)
VH: EVQLVESGGGLVQPGGSLRLSCAASGFTFSSFNMFWVRQAPGKGLEWVAGIDDDGSYPNYGSAVKGRATISRDNSKNTLYLQMNSLRAEDTAVYYCAKSGYGGSWGGYIADDIDAWGQGTLVTVSS
VL: ELTQPPSVSVSPGQTARITCSGDGSYAGSYYYGWYQQKPGQAPVTLIYYNNKRPSGIPERFSGSLSGSTNTLTISGVQAEDEADYYCGSADNSGAAFGGGTKLTVLG
notes: Mature humanized heavy chain with human IgG1 constant region and mature humanized light chain with human lambda constant region; also called hB9L9.3; humanized B9L9.3 mAb

How the values were obtained:
[1] = target: T1, human Frizzled-10 (FZD10) (human, UniProt Q9ULW2 21-581); assay: saturation binding on SYO-1 cells, flow cytometry; B9L9.3 on SYO-1 cells, Example 1 (FIG. 3)
T1 construct: no signal peptide limits are stated; also called FZ10; CD350
T1 sequence: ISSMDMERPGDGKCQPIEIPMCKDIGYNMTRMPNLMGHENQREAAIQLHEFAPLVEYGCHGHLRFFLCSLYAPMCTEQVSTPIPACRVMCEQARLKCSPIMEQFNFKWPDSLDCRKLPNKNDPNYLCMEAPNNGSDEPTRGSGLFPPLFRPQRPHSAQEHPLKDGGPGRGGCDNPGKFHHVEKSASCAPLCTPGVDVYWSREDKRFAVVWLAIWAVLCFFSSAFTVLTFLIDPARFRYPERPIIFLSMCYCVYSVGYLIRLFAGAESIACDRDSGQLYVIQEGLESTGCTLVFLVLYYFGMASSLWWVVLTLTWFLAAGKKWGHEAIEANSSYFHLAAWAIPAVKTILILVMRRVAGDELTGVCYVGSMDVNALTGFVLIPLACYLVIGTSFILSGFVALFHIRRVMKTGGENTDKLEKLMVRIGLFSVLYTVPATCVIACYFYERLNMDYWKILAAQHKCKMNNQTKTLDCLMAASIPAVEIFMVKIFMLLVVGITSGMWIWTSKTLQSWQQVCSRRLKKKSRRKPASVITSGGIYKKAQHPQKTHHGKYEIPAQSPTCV
Protocol: (§1) Recombinant antibodies were generated by cloning PCR-amplified V regions (Cummings et al., 2007 Supra) into a vector that supported expression of human IgG1 in 293F cells. Saturation binding kinetics were determined by either staining FZD10-specific DTLacO cells with various concentrations of fluorescent-labeled soluble antigen, or by staining FZD10-transfected cells or cancer cell lines intrinsically expressing FZD10 with various concentrations of the recombinant chimeric anti-FZD10 mAbs. To assay cell surface FZD10 binding, cells were stained with chimeric mAb clones B9A5 (parent), B9132.2 and B9L9.3 (progeny) or secondary antibody alone, all at concentrations ranging from […] to 800 nM, and analyzed by immunocytofluorimetry.

[2] = target: T1, human Frizzled-10 (FZD10); assay: saturation binding of recombinant antibody on SYO-1 cells; Table 2 comparison with the humanized antibody
[3] = target: T1, human Frizzled-10 (FZD10); assay: saturation binding of recombinant antibody on SYO-1 cells (FZD10+), flow cytometry MFI against Ab (nM)
Protocol: Affinity was determined by measuring saturation binding kinetics of the recombinant antibodies on SYO-1 cells.

[4] = target: T1, human Frizzled-10 (FZD10); assay: saturation binding on SYO-1 cells, flow cytometry; B9L32.2 on SYO-1 cells
Protocol: as §1

[5] = target: T1, human Frizzled-10 (FZD10); assay: saturation binding of recombinant antibody on SYO-1 cells

Binder | Kd [1] [nM] | Kd [2] [nM] | EC50 (read off the curve) [3] [nM] | Kd [4] [nM] | Kd [5] [nM]
B1 | 0.22 | 0.16 | ~0.1 |  | 
B2 |  |  |  | 40 | 
B3 |  |  | ~0.2 |  | 0.22
